Reference: the NTF2 design screens of Basanta et al. (2020)

test: protease stability score; higher = more stable; yeast display proteolysis, trypsin and chymotrypsin;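 note: relative to predicted unfolded state with 0 unfolded-like and 1 meaning tenfold more protease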

Row | Sequence | protease stability score
1 | SELEEEVRRAVTFWLEALMTGDEESVSHMLDPNVRVDIDGRDLHGREKMIETMKHIRIKHIELTSIKVINGRAHIHTKVDGEFNGRRDTLDVEIIITKINGKWVVKEVNVK | 1.7
2 | DDDERALEEAIRIIKEVFKTGDERLHEELFDPNYLLIINGVFYHGREVMRNFHRHWRIRHVEFRRTRVINGRIEMDVHIITDINGQEIRHDSHIYAHKIDGRWIFRSVEHH | 1.63
3 | DEEEEIVMKNARDLIHLTQTGDFEKQRHLLDPHVLVVLVQGDKRIEQHGWHFWKYLMKEIRIKHIRIDHVEAQGNKAQVRGTVDGNINGRDTHWEFELTFVFIDGRIRTIDIRID | 1.4
4 | SEMEETAKTVYKRWFDMLHTGDEELLTRFMDPHVRVQQGDKEIVGWELVVTHNRHLRYEDSHLKDIETQGDKVIIRGELVLTIGDKRFTIDVEILAQKVDGRWILKSVRFS | 0.035
5 | DEREEEMQRIMEDFIRAWSTGDEKRLKELIDPRDRMIINGKERHGMEEWKTLWETLGINYIDIEHVHLQGEKARIHGTSKFNGRHHEVRIEIRVVDGRFTEVHVDII | 1.78
6 | DERTELTRNFFEEMVDTMITGNEHLEHRLADPNVRIYVGEKRIHGMERYIHQHHQWRFKDFKLKDIDTQGDKATIDGHLEGEVNGKDTRTDVEVHTLKFNGRWLIHTLRIR | 1.1
7 | DEERDHLLEISQRIIHSWVTGDWKLFARLIDPHARLIFHFENVDLHYHGREQVVTFIIEMRIQHIDIRRYTVQGNKVHIDGHQKIEIGDKSIRTDSEMNSIIVNGKLHETFLIFK | 1.45
8 | DHREKELEKMARIFIHNLVTGDWRSLEKLADPDAKSEVIIGDKHIEHVGRHEVWKMLFEIRWEQVEVHDIRIYNGRVEIDGHMKGDIDGRRIETDTKIRLTIVNGVVQTFHMEIR | 2.23
9 | DHLHEDSKEAFHLWKELSRTGDPKEFADNVDPNVRILINGKRYHGMEHLEHLMMELGIKHSEITRIDTIGDKLHLDGHNRFNGRTVDVHILSNKINGRWVIEEVEVL | 1.14
10 | SEEEESIRHSWEIFETVLKTGDWTDYEKLFDPNDRTEIGDKRLHGMDLLIHILRRLGIKHNHAEMRIRSFEMIGDKAIIDGEIHVVLDFNGREVRSSSEILIIDRKINGRWLVESMHVI | 1.21
11 | DEVEHIVRWMVELLMRALQTGDEETLTRLMDPHARHEIDGKESHGREFLDTLKRRFKNIQWHSIEIEDYKHYDGRVEIHGILHVRVGDKRHEIHIEFVIQKIDGRWHVDRLHLK | 1.55
12 | SEDEELMKKVFEIFLNHLETGDWRELEKLLDPHAQLNIDGRDYHGWDKITEEMRKLGMTMHSELEHVRFQGDKIDLKGYVKVRIGDKEIRRSTRYVALKVDGRWEERSIILL | 1.41
13 | TELDKHVEDLLHRFIEALHTGNWEQLEHLVDPDARFDVDGRIHHGREWLLTHMTRIKNARIEFHHIEIYGDYISMRVIIHVNGQTRDFHLELITFNGRIKEVRIWHI | 2.34
14 | NEEEEHIFELWELFLKASHTGDEDSLKEFADPNTRQIVDGQEIHGREKFTEHLSWRAKELRLESVHIRRLHIIDGRIHVDGLIRGRINGREIEIETEVISIKVNGKWILKEMNFK | 1.28
15 | HEDDHAVRKTIEDLLRSITTGDFELYSKLADPNTRFNIDGVNDVGMEIWVEKAIQHGWKVRHFHIRDVEVQGDKIDVDLKIDEDVNGRRIDIHVLLIIRKIDGRWILESVEHV | 1.64
16 | EEERERAKDVFELLWDIEKTGDEDTFTKLADPNVRTHVGDKHFHGRELVAKWLVDVLRELRVHDIEIKSETVINGRNIVDGVLDGHINGRTVKMTTEILILVINGRIREIDIRIL | 0.825
17 | DEEEKLEEDLARFWVTLLKTGDEEVIRHLADPHVREDWDGVHIHGREHVAKYLSQIKNVTWEIKEVRIYNGRTEIDARHHVNGRDEHVRIHIEVFNGKVRRLRFEKR | 1.5
18 | DEEKDHAQMFLELWRHFLETGDEEFLERLADPHVKSLINGVEHHGREIMYKYLIKFLRRLGVDRVHTEVRIHHMHVINGVAFFDGTLHLNFNGQTYSRRVEIIVYKVNGRWHLHEFRIE | 1.74

Row | Sequence | protease stability score
19 | DEDHELVHRAIRDLFRALDTGDEDALEEMMDPHTRLHVGDKIYHGRDNVLRFWRRLGVDHVKVHLHDVRIQGEKIDQNTELRIQIGDKRITTETRIIMFKFDGRWRRESVHIE | 1.01
20 | DEEDEANKQIMEHLRKVWDTGDFHTYLRLADPHMRFIVGDKIFHGREEITQLIKELLEKFGADHVELENSRESLVGDKLHLDLHTRYHFNGREIRVDVHNEVTKIDGKWHIKFLSLRIK | 1.42
21 | DEENKSMEEMIRLLTEALRTGDFELIHHLADPRMRILIGDKELHGWESWAQFVVKLGVKHTRIQIDDFRIIDGRINLHTHMEIDIDGRRTSSHTHMETIKVDGRWLITVLKIR | 1.1
22 | DEEERALIVLLLLFEESMRTGDPRLIKELMDPHMRLRFENRHYHGRDEFMEWFKQVDHIFIDRVNIRDVRLIGEWVRIDVEILGTHEQGDKQFEFRRRTHLVVRKVDGRWIMHHVEIR | 1.64
23 | SEDEKMAERVLRLLYEDILTGDEHALKRLLDPDARLSQGDKQHHGREVLLEWMRTVWERVDHMEFELKDFRFYGNYIIIHGTLTERINGRKLEFEVILYVYKINGKWFLHSIEIR | 1.85
24 | DERDEQAEEAMKIWIHSVQTGNEDLLRRLVDPHVRITVGDKEIHGREQFAEYYHRLVTELRIHIHIHRITVINGQVHSHVEIRIQIGDKEISFETRMFILKVDGVWLFKREEVT | 0.744
25 | DTEDKLSEEALKDLLEKVKTGDPQVMEELADPEVKVDIGDKNLHGREEYTRWVEKLWKRVPNLKLEIDHVEFQGDYVLIEGRIIYNGRKHKIKIHSLKIDGRWLIETVRIR | 1.39
26 | SEDEEAIERFLREFVKAERTGDEKTILSLMDPHVRIHQGDWEVHGRDDLRHFFHRIDHVRSRFHLTHVDHQGDKAIFKGTVEYHIHVDGKDIHSTSSVDIHVRKINGRWLMHNVHIE | 1.63
27 | DEEEQHSRELAEIYFEIWETGDFHTHKRMMDPNAKLDYNGQTIHGREHIVEYLRHLWERVKGVRFHLDSVHLQGDWLHIRGTLQVDGQHHKVDIHVQIVDGVLHEEHIRVR | 1.53
28 | SHEEEDEHRLVIEWLEAVLTGDEDRLTELFDPNMRFVFENHQVHGRERVSKLLVRHMLEWRTRVKIEDMEYFNGRLHIDMELHVDVNGRHVNIKSLLIVEKINGKWFVRSVRVR | 0.534
29 | DPREIALKLLLQIMQELEETGDFREEEKYVDPHMRIKIDGVIYHGRSAIEHEYRRFDHIHEIELKRFHVQGDKITLEGYIRGNFDGKEHNTRSILLAKKVNGRWVLTEVTWL | 0.801
30 | TEEDELYRLLREHLKHVIETGDEELTQKNLDPHVKVELQIGDKKFTLHGRDQFTQWWKELHEKVKNIRFEDRHVQFFDGVAVVHVEINVNGRHIELIVIAEKVNGQWRIKHVEIRFL | 1.53
31 | SEDEEYMHNVARLLMESLLTGDEKTLKELFDPNTRVDINGKDIHGREDILTDWKRREHEWRVEDIKIEHEEVQGNKAVLHGKVTGDINGVKTHIHRDVHWEVINGKLKYVKFEHR | 1.12
32 | DEDEKKLEHHLRTYEEALRTGDEELNHRLADPNTKVDVDGRYIHGRDFWREIMNQWRFKEMRFREIHLQGDKANVDTEVNIDVNGREMRTESHIISIKIDGRWMIKEVRFR | 0.799
33 | HDHDKHLDRLEELMLRWWKTGDWDKILKYADPHTRSDVNGKEYHGRESMVRAFEHVLKMLGIDVVYDQSHHLQGEKAKFHQESRVGDKRVEVIIIITIVDGRVTEFEVEVHHN | 0.722
34 | REEDKEFEDAVKTILHSFLTGDFDLLIKLLDPNVRIRFENVDLVGWSEYLRRLEEFGVKVHRTKRSDIRYINGVAVVIIDGEMEYGDKKTKVELNFVMQKYDGRWRTQSIHEKEH | 1.12
35 | SEDEKLFRLSIEIYLRVSRTGDEHMAHEYADPHVRLRIGDKEFHGREEFIKWVNELRVEELRLKEVRVIGDKAHLRTEVHTYIGDKEINYEMEIHQTKIDGKWFLREMKLK | 0.486
36 | DEERELYKRHWDRLNRAIHTGDEEEVRRLADPDYKIRIGDKTLHGREDIKKFLEHIRISVESFEIKDMHDIDGVIEVDGKVELRLVVDGRTFRIETRVVYYILKVNGRWLMHSEIYH | 0.82
